As usually defined, the EC50 (read off the curve) is the concentration needed to bring the measured effect to its halfway point. Read a low EC50 (read off the curve) as a more potent agent.

Test [1] concerns the target T1, human-derived cell death receptor 4, extracellular domain (amino acid residues 1-216), 6xHis tag (human, UniProt O00220 24-239).
T1 construct: extracellular domain; Expressed in E. coli; biotinylated for sorting and flow cytometry; residues 1-216; also called DR4; TRAIL-receptor 1
Put plainly: ELISA, coated target, A405. On the procedure:
(§1) In order to measure the affinity and cross reactivity of the anti-DR4, -DR5 and -TNFα protein scaffold variants based on the Kringle domain structure to the target molecules, an enzyme-linked immunosorbent assay (ELISA) was performed. The target molecules DR4, DR5, TNFα and DcR1, DcR2 were attached to a 96 well EIA/RIA plate (COSTARCorning In., USA) by its reaction at 37° C. for 1 hour, and washed three times with 0.1% PBST (0.1% Tween20, pH 7.4, 137 mM NaCl, 10 mM Phosphate, 2.7 mM KCl, SIGMA-ALDRICH Co., USA) for 10 minutes. The target molecules were attached for 1 hour to a 96 well EIA/RIA plate in 1% PBSB (1% BSA, pH 7.4, 137 mM NaCl, 10 mM Phosphate, 2.7 mM KCl, SIGMA-ALDRICH Co., USA), and then washed three times with 0.1% PBST (0.1% Tween 20, pH 7.4, 137 mM NaCl, 10 mM Phosphate, 2.7 mM KCl, SIGMA-ALDRICH Co., USA) for 10 minutes. Then, the anti-DR4, -DR5 and -TNFα Kringle domain variants were bound, and washed three times with 0.1% PBST for 10 minutes. The anti-DR4, -DR5 and -TNFα Kringle domain variants were primarily bound to mouse-derived anti-c-myc 9e10 mAb (Ig Therapy, Korea), and secondarily bound to alkaline phosphatase (AP)-conjugated anti-mouse mAb (Sigma). Each of the Kringle domain variants was reacted with […] (pNPP, Sigma-aldrich Co., USA) and quantified at an absorbance of 405 nm.
For orientation: An ELISA detects its analyte on a solid surface through an enzyme-linked reagent.

Test [2] has as its target T2, DcR1 (UniProt O14798 26-221, limits assumed).
T2 sequence (looked up): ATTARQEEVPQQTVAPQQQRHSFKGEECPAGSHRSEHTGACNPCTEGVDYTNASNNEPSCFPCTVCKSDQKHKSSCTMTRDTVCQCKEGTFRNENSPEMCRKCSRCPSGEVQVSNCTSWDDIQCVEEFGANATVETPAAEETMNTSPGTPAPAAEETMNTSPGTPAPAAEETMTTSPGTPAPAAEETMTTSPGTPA
In words: ELISA, coated target, single binder concentration not given, A405. The method, then: as §1

Test [3] has as its target T1, human-derived cell death receptor 4, …. The description is as above. The method, then:
as §1

For test [4], the target named is T3, DcR2 (UniProt Q9UBN6 56-211, limits assumed).
T3 sequence (looked up): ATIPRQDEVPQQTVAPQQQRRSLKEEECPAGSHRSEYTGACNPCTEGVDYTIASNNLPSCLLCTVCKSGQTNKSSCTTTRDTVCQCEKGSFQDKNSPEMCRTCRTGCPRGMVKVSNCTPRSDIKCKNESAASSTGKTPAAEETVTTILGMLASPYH
The test is described as above. The method, then:
as §1

Test [5] has as its target T2, DcR1. In words: yeast display, flow cytometry MFI [panel KD506].
The target of test [6] is T1, human-derived cell death receptor 4, …. Put plainly: yeast display, flow cytometry MFI [panel KD506]. Background: Flow cytometry measures light scatter and fluorescence of single cells or particles in a stream.
For test [7], the target named is T3, DcR2. In words: yeast display, flow cytometry MFI [panel KD506].
The target in test [8] is T4, human-derived cell death receptor 5, extracellular domain (amino acid residues 1-130), 6xHis tag (human, UniProt O14763 56-210).
T4 construct: extracellular domain; Expressed in E. coli; biotinylated for sorting and flow cytometry; also called DR5; TRAIL-receptor 2
In words: ELISA, coated target, A405. On the procedure: as §1

Test [9] deals with T2, DcR1. In words: yeast display, flow cytometry MFI [panel KD415].
Test [10] deals with T3, DcR2. Put plainly: yeast display, flow cytometry MFI [panel KD415].

T4 sequence (O14763 other isoform, or with tags, fused parts or gaps limits assumed, form in doubt): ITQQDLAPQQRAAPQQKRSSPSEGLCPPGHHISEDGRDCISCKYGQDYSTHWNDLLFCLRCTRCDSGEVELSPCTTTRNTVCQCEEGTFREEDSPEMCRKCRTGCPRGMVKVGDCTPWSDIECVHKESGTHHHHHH
T1 sequence (O00220 other isoform, or with tags, fused parts or gaps): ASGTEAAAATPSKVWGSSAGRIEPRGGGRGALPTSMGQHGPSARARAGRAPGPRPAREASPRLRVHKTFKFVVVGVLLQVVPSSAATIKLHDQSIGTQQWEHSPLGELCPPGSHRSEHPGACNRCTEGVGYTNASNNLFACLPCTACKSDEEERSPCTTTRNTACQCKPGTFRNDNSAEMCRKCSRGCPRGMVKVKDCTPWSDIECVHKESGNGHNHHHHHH

B1: KD459 (designed binder)
chain: CSRYRGHKYDGYKHRTYKGYQCQSWTKDKPHHHGIRHRNKIRDRFGKNYCRNPDTQNQPWCFTYGDEYRYELCNKPRC
B1: in test [1], the “EC50 (read off the curve)” value is roughly 2000 nM.

B2: KD445 (designed binder)
chain: CHETKGHKYDGHRLRTNKGDRCQPWTKDKPHHHGFRDQYQVRYKLKKNYCRNPDDQNKPWCFTDGNQHEHELCNGPRC
Turning to B2, the binding result is “no binding” with DcR1 [2], “binds” in test [3] and “no binding” in the test with DcR2 [4].

B3: KD506L567 (designed binder)
chain: CMHCSGENYDGKISKTMSGLECQAWDSQSPHAHGYIPSKFPNKNLKKNYCRNPDYETGPWCFTNRYRNKNELCHEPRC
For B3, the binding result (with DcR1 [5]; in test [6]; in the test with DcR2 [7]) was “no binding” in each case.

B4: L56 (KD506) (designed binder)
chain: CMHCSGENYDGKISKTMSGLECQAWDSQSPHAHGYIPSKFPNKNLKKNYCRNPDYETGPWCFTNRYRNKNELCDIPRC
notes: also called KD506L56
As to B4, the binding result (with DcR1 [5]; in test [6]; in the test with DcR2 [7]) was “no binding” throughout.

B5: L5 (KD506) (designed binder)
chain: CMHCSGENYDGKISKTMSGLECQAWDSQSPHAHGYIPSKFPNKNLKKNYCRNPDYETGPWCFTTDPNKRWELCDIPRC
notes: also called KD506L5
On to B5, for which the binding result (with DcR1 [5]; in [6]; in the test with DcR2 [7]) was “no binding” each time.

B6: KD437 (designed binder)
chain: CAKSRGYKYDGNRYKTNKGDKCQAWTKTKPHDHGHRHGHGDRFRNRKNYCRNPDHESKPWCFTYRDRYRHELCNRPRC
Turning to B6, the binding result with DcR1 [2] is “no binding”; in [3] it was “binds”; with DcR2 [4], “no binding”.

B7: KD537 (designed binder)
chain: CTRTKGAKYDGYKHRTHEGNKCQSWNKARPHLHGDRLGNKYEHKARKNYCRNPDNRAEPWCFTDKNQNQHELCYGPRC
For the molecule B7, the binding result (with DcR1 [2]; in test [3]; with DcR2 [4]) was “no binding” each time.

B8: KD542 (designed binder)
chain: CNRAGGHKYDGDRYRTHRGDGCQNWAKTKPHHHGIGHRDKIRDKYRKNYCRNPDAKNGPWCFTNRNGDKNELCIQPRC
notes: Soluble monomer from Pichia pastoris; not shown: C-terminal myc tag-6xHis tag of pPICZaA
Consider B8, for which, in [3], the binding result is reported as “binds”. Besides, the concentration for a half-maximal effect (EC50 (read off the curve)) in test [8] was roughly 5000 nM.

B9: KD509 (designed binder)
single chain: CAQSKGYRYDGDKDKTNKGHKCQDWAQNKPHVHGHRHEDRHQVKSRKNYCRNPDARARPWCFTNQVRYRNELCYKPRC
Take B9: the binding result with DcR2 [4] was “no binding”.

B10: KD502 (designed binder)
chain: CAEDKGARYDGYQYRTHKGIKCQPWYQHEPHYHGHKDKIRHKNRNKKNYCRNPDAGDRPWCFTHRDKYEHELCNRPRC
As for B10, the binding result (in the test with DcR1 [2]; in test [3]; with DcR2 [4]) was “no binding” in each case. For the same molecule, in test [8], the “EC50 (read off the curve)” value was roughly 2000 nM.

B11: KD505 (designed binder)
chain: CPEDQGDEYDGHEHKTHRGNRCQSWYRPKPHNHGHRIKDRYKYKVKKNYCRNPDTQARPWCFTNRHRDEHELCDQPRC
notes: also called KDS05
Take B11: the binding result (in the test with DcR1 [2]; in [3]; with DcR2 [4]) was “no binding” in each case.

B12: KD404 (designed binder)
chain: CSRDKGYRYDGDGNKTLKGHKCQHWTKSKPHDHGYRHKLGNEDKFKKNYCRNPDTRAGPWCFTDQYRDRDELCYQPRC
notes: Soluble monomer from Pichia pastoris; also called anti-DR4 Kringle domain variant KD404; not shown: C-terminal myc tag-6xHis tag of pPICZaA
As to B12, the binding result with DcR2 [4] was “no binding”. In addition, the “EC50 (read off the curve)” value in [1] is roughly 600 nM.

B13: KD421 (designed binder)
chain: CAGAEGNEYDGDKYKTHKGYRCQRWDKSRPHNHGNKDRHQHENKVGKNYCRNPDNEAEPWCFTDQHKHGNELCDRPRC
As for B13, the values for the binding result (in the test with DcR1 [2]; in test [3]; with DcR2 [4]) were “no binding”, “binds” and “no binding”, respectively.

B14: KD503 (designed binder)
chain: CTQTKGHRYDGYKYETNWGHQCQAWTKHKPHLHGNGHRNRHKVGHEKNYCRNPDHRDGPWCFTNQYENENELCHQPRC
In the case of B14, the binding result (with DcR1 [2]; in test [3]; in the test with DcR2 [4]) was “no binding” each time. For the same molecule, the “EC50 (read off the curve)” value in test [8] is roughly 400 nM.

B15: KD408 (designed binder)
chain: CDRHKGPKYDGFRDRTHKGHKCQYWDKPRPHHHGHKHGDEFRNRLGKNYCRNPDSQAEPWCFTHKDKYKYELCYQPRC
Take B15: the binding result with DcR1 [2] is “no binding”; in the test with DcR2 [4], “no binding”; in test [1] it was “binds”.

B16: KD555 (designed binder)
chain: CDGAQGNGYDGNKHKTHRGNKCQAWPKHGPHYHGNGDQDGHRNKHKKNYCRNPDTRSRPWCFTDQNGHKDELCHGPRC
notes: also called KDS55
Turning to B16, the binding result (with DcR1 [2]; in test [3]; with DcR2 [4]) was “no binding” each time.

B17: KD456 (designed binder)
chain: CDKNRGNGYDGNEIQTDGGVQCQHWTKTKPHHHGLKLQHEHRVKHEKNYCRNPDARTQPWCFTDKHQHKDELCIEPRC
As for B17, the binding result in the test with DcR1 [2] and with DcR2 [4] was “no binding” each time. Moreover, the “EC50 (read off the curve)” value in test [1] was roughly 2000 nM.

B18: KD409 (designed binder)
chain: CAKDKGDKYDGHKHKTNRGDKCQTWAKNRPHFHGHRFEVGHEHKIRKNYCRNPDDQDKPWCFTHGYRNQDELCDGPRC
Turning to B18, the results for the binding result (in the test with DcR1 [2]; in [3]; with DcR2 [4]) were “no binding”, “binds” and “no binding”, respectively.

B19: L1234 (KD415) (designed binder)
chain: CTRSKGDEYDGHKHKTNRGLRCQHWPGTKPHFHGDKIKDRHGFRLKKNYCRNPDRELRPWCFTTDPNKRWELCDIPRC
notes: also called KD415L1234
Regarding B19, the binding result with DcR1 [9] and in the test with DcR2 [10] was “no binding” throughout.

B20: L1234 (KD506) (designed binder)
chain: CPEDRGHEYDGDGDKTNRGHGCQYWDQNKPHHHGHRDKDKFKHRIKKNYCRNPDRELRPWCFTTDPNKRWELCDIPRC
notes: also called KD506L1234
Consider B20, for which the binding result (with DcR1 [5]; in [6]; with DcR2 [7]) was “no binding” in each case.

B21: KDT08 (designed binder)
chain: CPKSGGNGYDGYKHGTNEGLQCQNWDRAKPHDHGIEVQNEYGDRHEKNNCRNPDDKTRPWCFTHKDRYRNELCYQPRC
notes: Soluble monomer from Pichia pastoris; also called KRT08; not shown: C-terminal myc tag-6xHis tag of pPICZaA
Turning to B21, the binding result in test [3] is given as “no binding”.
